What was measured:
[1] = system: CC(=O)N[C@H]1[C@H](Oc2ccc([N+](=O)[O-])cc2)O[C@H](CO)[C@@H](O)[C@@H]1O; assay: purified protein; format: biochemical, Enterococcus faecalis; settings: PCTP buffer pH 8, 5 nM enzyme, 0.09-12 mM substrate, isolated GH20 domain
[2] = system: CC(=O)N[C@H]1[C@H](Oc2ccc([N+](=O)[O-])cc2)O[C@H](CO)[C@@H](O)[C@@H]1O; assay: purified protein; settings: PCTP buffer pH 8, 5 nM enzyme, 0.09-12 mM substrate, GH20 active site within full-length EndoE
[3] = target: T1, EndoE-GH18L (Enterococcus faecalis, UniProt Q6U890); assay: X-ray crystal structure of the complex, […] Å; format: binding; settings: co-crystallised with 2.5 mM Man5GlcNAc; pH 6.5 Bis-Tris propane; GH18 active-site groove
T1 construct: gene ndoE; GH18 domain plus linker region (3HB-1, 3HB-2), residues 56-486; GST tag cut by TEV (GSG linker); E. coli BL21(DE3)
T1 sequence (Q6U890 entry or part of it): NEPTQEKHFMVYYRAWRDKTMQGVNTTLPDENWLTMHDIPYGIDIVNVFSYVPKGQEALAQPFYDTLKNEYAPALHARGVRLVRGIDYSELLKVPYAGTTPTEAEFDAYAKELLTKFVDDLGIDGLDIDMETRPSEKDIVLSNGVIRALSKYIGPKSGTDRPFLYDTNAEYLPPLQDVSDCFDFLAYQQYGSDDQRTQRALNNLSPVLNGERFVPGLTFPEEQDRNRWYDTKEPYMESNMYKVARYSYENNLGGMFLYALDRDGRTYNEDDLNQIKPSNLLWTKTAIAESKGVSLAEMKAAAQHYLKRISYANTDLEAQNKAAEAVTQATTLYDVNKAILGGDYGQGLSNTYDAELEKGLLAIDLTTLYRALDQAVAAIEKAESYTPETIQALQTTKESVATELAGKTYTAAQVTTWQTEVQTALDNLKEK

EndoE-GH20 (Enterococcus faecalis)
Km [1]: 970 µM | kcat [1]: 86 s⁻¹

EndoE (Enterococcus faecalis)
Km [2]: 450 µM | kcat [2]: 41 s⁻¹

CC(=O)N[C@H]1C(O)O[C@H](CO)[C@@H](O[C@@H]2O[C@H](CO[C@H]3O[C@H](CO[C@H]4O[C@H](CO)[C@@H](O)[C@H](O)[C@@H]4O)[C@@H](O)[C@H](O[C@H]4O[C@H](CO)[C@@H](O)[C@H](O)[C@@H]4O)[C@@H]3O)[C@@H](O)[C@H](O[C@H]3O[C@H](CO)[C@@H](O)[C@H](O)[C@@H]3O)[C@@H]2O)[C@@H]1O (some centres unmarked) [Man5, Man5GlcNAc]
X-ray crystal structure of the complex, 2.6 Å [3]: crystal structure of EndoE-GH18L in complex with the Man5GlcNAc (Man5) product

From article PMC8894350, “Mechanism of cooperative N-glycan processing by the multi-modular endoglycosidase EndoE” (Nature Communications, 2022)
